# Experimental data reported in patent US20210054094A1 (Hoffmann-La Roche, published 2021).
# Changes are numbered by the printed parent chain.
# B1: 10B10-TCB (bispecific antibody)
# light 1: DIQLTQSPHSLSASLGETVSIECLASEGISNYLAWFHQKPGKSPQLLIYYASSLQDGVPSRFSGSGSGTQYSLKISNMQPEDEGVYYCQQGYKYPLTFGSGTKLEIKRTVAAPSVFIFPPSDRKLKSGTASVVCLLNNFYPREAKVQWKVDNALQSGNSQESVTEQDSKDSTYSLSSTLTLSKADYEKHKVYACEVTHQGLSSPVTKSFNRGEC
# light 2: EVQLLESGGGLVQPGGSLRLSCAASGFTFSTYAMNWVRQAPGKGLEWVSRIRSKYNNYATYYADSVKGRFTISRDDSKNTLYLQMNSLRAEDTAVYYCVRHGNFGNSYVSWFAYWGQGTLVTVSSASVAAPSVFIFPPSDEQLKSGTASVVCLLNNFYPREAKVQWKVDNALQSGNSQESVTEQDSKDSTYSLSSTLTLSKADYEKHKVYACEVTHQGLSSPVTKSFNRGEC
# heavy 1: EVQLVESGGGLVQPGRSMKLSCAASGFTFTNFYMAWVRQAPTKALEWVASINTGGGYTYYRDSVKGRFTVSRDNTRSTLYLQMDSLRSEETATYYCARHLTYYGRYYYFDYWGQGVMVTVSSASTKGPSVFPLAPSSKSTSGGTAALGCLVEDYFPEPVTVSWNSGALTSGVHTFPAVLQSSGLYSLSSVVTVPSSSLGTQTYICNVNHKPSNTKVDEKVEPKSCDKTHTCPPCPAPEAAGGPSVFLFPPKPKDTLMISRTPEVTCVVVDVSHEDPEVKFNWYVDGVEVHNAKTKPREEQYNSTYRVVSVLTVLHQDWLNGKEYKCKVSNKALGAPIEKTISKAKGQPREPQVCTLPPSRDELTKNQVSLSCAVKGFYPSDIAVEWESNGQPENNYKTTPPVLDSDGSFFLVSKLTVDKSRWQQGNVFSCSVMHEALHNHYTQKSLSLSPGK
# heavy 2: not shown
# B2: B72-TCB (bispecific antibody, human IgG1, kappa, L234A L235A)
# heavy 1: not shown
# light 1: B1 light 2 with L5V, S30N, S49A, D64A, T80S, R89K, A90T, V99A
# heavy 2: QVQLVQSGAEVKKPGASVKVSCKASGYSFTGYTMNWVRQAPGQGLEWMGLINPYNSDTNYAQKLQGRVTMTTDTSTSTAYMELRSLRSDDTAVYYCARVALRVALDYWGQGTLVTVSSASTKGPSVFPLAPSSKSTSGGTAALGCLVEDYFPEPVTVSWNSGALTSGVHTFPAVLQSSGLYSLSSVVTVPSSSLGTQTYICNVNHKPSNTKVDEKVEPKSCDKTHTCPPCPAPEAAGGPSVFLFPPKPKDTLMISRTPEVTCVVVDVSHEDPEVKFNWYVDGVEVHNAKTKPREEQYNSTYRVVSVLTVLHQDWLNGKEYKCKVSNKALGAPIEKTISKAKGQPREPQVCTLPPSRDELTKNQVSLSCAVKGFYPSDIAVEWESNGQPENNYKTTPPVLDSDGSFFLVSKLTVDKSRWQQGNVFSCSVMHEALHNHYTQKSLSLSPGK
# light 2: DIQMTQSPSSLSASVGDRVTITCKASQNVATHVGWYQQKPGKAPKRLIYSASYRYSGVPSRFSGSGSGTEFTLTISNLQPEDFATYYCQQYNRYPYTFGQGTKLEIKRTVAAPSVFIFPPSDRKLKSGTASVVCLLNNFYPREAKVQWKVDNALQSGNSQESVTEQDSKDSTYSLSSTLTLSKADYEKHKVYACEVTHQGLSSPVTKSFNRGEC
# B3: P1AE5707 (antibody, V domains shown)
# VH: EVQLLESGGGLVQPGGSLRLSCAASGFTFSKYAMAWVRQAPGKGLEWVASISTGGVNTYYRDSVKARFTISRDNSKNTLYLQMNSLRAEDTAVYYCATHTGDYFDYWGQGTMVTVSS
# VL: DIVMTQSPDSLAVSLGERATINCRASQSVSISGINLMNWYQQKPGQQPKLLIYHASILASGVPDRFSGSGSGTDFTLTISSLQAEDVAVYYCQQTRESPLTFGQGTRLEIK
# B4: P1AE5721 (antibody, V domains shown)
# VH: B3 VH with R61A, A66G
# VL: B3 VL with R24K, A25S
# B5: P1AE5713 (antibody, V domains shown)
# VH: B3 VH
# VL: DIQMTQSPSSLSASVGDRVTITCRASQSVSISGINLMNWYQQKPGQQPKLLIYHASILASGVPSRFSGSGSGTDFTLTISSLQPEDFATYYCQQTRESPLTFGQGTRLEIK
# B6: P1AE5708 (antibody, V domains shown)
# VH: B3 VH
# VL: B3 VL with R24K, A25S
# B7: P1AE5720 (antibody, V domains shown)
# VH: B3 VH with R61A, A66G
# VL: B3 VL
# B8: P1AE5715 (antibody, V domains shown)
# VH: B3 VH with V2L, S75A
# VL: B3 VL with R24K, A25S
# B9: P1AE5714 (antibody, V domains shown)
# VH: B3 VH with V2L, S75A
# VL: B3 VL
# B10: P1AE5706 (antibody, V domains shown)
# VH: ELQLEQSGGGLVQPGGSLTLSCAASGFTFSKYAMAWVRQAPTKGLEWVASISTGGVNTYYRDSVKARFTISRDNAKNTQYLQMDSLRSEDTATYYCATHTGDYFDYWGQGVMVTVSS
# VL: DIVLTQSPALAVSPGQRATISCRASQSVSISGINLMNWYQQKPGQQPKLLIYHASILASGIPTRFSGSGSGTDFTLTIDPVQADDIATYYCQQTRESPLTFGSGTNLEIK
# B11: P1AE5733 (antibody, V domains shown)
# VH: EVQLVESGGGLVQPGRSLKLSCAASGFSFSNYGMAWVRQAATKGLEWVASISTGGGNTYYRDSVKGRFIVSRDNAKNTQYLQMDSLRSEDTATYYCTRHDRGGLYWGQGVMVTVSS
# VL: DIVMTQAPLSVSVTPGESASISCRSSKSLLHSNGITYVYWYFQKPGKSPQVLIYRMSNLASGVPDRFSGSGSETDFTLKISRVEAEDVGIYHCGQLLENPYTFGAGTELELK
# B12: P1AE5760 (antibody, V domains shown)
# VH: EVQLVESGGGLVQPGGSLRLSCAASGFSFSNYGMAWVRQAPGKGLEWVASISTGGGNTYYADSVKGRFTISRDNAKNTLYLQMNSLRAEDTAVYYCTRHDRGGLYWGQGTMVTVSS
# VL: DIVMTQSPLSLPVTPGEPASISCRSSKSLLHSNGITYVYWYLQKPGQSPQVLIYRMSNLASGVPDRFSGSGSGTDFTLKISRVEAEDVGVYHCGQLLENPYTFGQGTKLEIK
# B13: P1AE5742 (antibody, V domains shown)
# VH: B12 VH with L11V, G16R, A61R
# VL: DIVMTQSPDSLAVSLGERATINCKSSKSLLHSNGITYVYWYQQKPGQPPKLLIYRMSNLASGVPDRFSGSGSGTDFTLTISSLQAEDVAVYHCGQLLENPYTFGQGTKLEIK
# B14: P1AE5743 (antibody, V domains shown)
# VH: B12 VH with L11V, G16R, A61R
# VL: EIVLTQSPGTLSLSPGERATLSCRASKSLLHSNGITYVYWYQQKPGQAPRLLIYRMSNLASGIPDRFSGSGSGTDFTLTISRLEPEDFAVYHCGQLLENPYTFGQGTKLEIK
# B15: P1AE5761 (antibody, V domains shown)
# VH: B12 VH
# VL: B12 VL with Q47K
# B16: P1AE5754 (antibody, V domains shown)
# VH: B12 VH with L11V, G16R
# VL: B14 VL
# B17: P1AE5762 (antibody, V domains shown)
# VH: B12 VH
# VL: B12 VL with V51L, L59R
# B18: P1AE5738 (antibody, V domains shown)
# VH: B12 VH with E1Q, L11V, G16R, A61R, A75S
# VL: B14 VL
# B19: P1AE5764 (antibody, V domains shown)
# VH: B12 VH
# VL: B14 VL
# B20: P1AE5758 (antibody, V domains shown)
# VH: B12 VH with A61R
# VL: B13 VL
# B21: P1AE5749 (antibody, V domains shown)
# VH: B12 VH with E1Q, L11V, G16R, A75S
# VL: B14 VL
# B22: P1AE5747 (antibody, V domains shown)
# VH: B12 VH with E1Q, L11V, G16R, A75S
# VL: B13 VL
# B23: P1AE5753 (antibody, V domains shown)
# VH: B12 VH with L11V, G16R
# VL: B13 VL
# B24: P1AE5759 (antibody, V domains shown)
# VH: B12 VH with A61R
# VL: B14 VL
# B25: P1AE5763 (antibody, V domains shown)
# VH: B12 VH
# VL: B13 VL
# B26: P1AE5737 (antibody, V domains shown)
# VH: B12 VH with E1Q, L11V, G16R, A61R, A75S
# VL: B13 VL
# Molecular target: T1, human GPRC5D (human, UniProt Q9NZD1 1-345)
# T1 sequence (Q9NZD1 whole entry): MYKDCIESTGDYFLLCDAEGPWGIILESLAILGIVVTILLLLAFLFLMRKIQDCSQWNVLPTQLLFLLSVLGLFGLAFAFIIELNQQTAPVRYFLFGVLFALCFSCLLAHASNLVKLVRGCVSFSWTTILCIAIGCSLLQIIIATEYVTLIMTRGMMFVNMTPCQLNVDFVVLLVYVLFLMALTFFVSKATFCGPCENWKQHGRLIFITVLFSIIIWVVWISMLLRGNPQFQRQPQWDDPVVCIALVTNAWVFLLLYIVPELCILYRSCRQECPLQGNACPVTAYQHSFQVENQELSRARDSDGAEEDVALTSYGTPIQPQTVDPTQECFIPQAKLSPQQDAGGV
# Assay: cell-based or functional assay
Binder,"EC50 of in vitro killing, AMO-1 cells [nM]","EC50 of in vitro killing, EJM cells [nM]","EC50 of in vitro killing, L363 cells [nM]","EC50 of in vitro killing, MOLP-2 cells [nM]","EC50 of in vitro killing, NCI-H929 cells [nM]","EC50 of in vitro killing, OPM-2 cells [nM]","EC50 of in vitro killing, RPMI cells [nM]"
B1,0.084,0.079,0.034,0.16,0.056,0.028,0.965
B2,0.109,0.06,0.058,0.124,0.058,0.171,0.193

# Molecular target: T1, human GPRC5D
# Assay: cell-based or functional assay
# Remark: another data set of the same source
row,"CAR-J2 EC50 (PGLALA-CAR-J activation, L363 target cells) [µg/mL]",Binder
1,0.0424,B3
2,0.025,B4
3,0.0769,B5
4,0.456,B6
5,0.0063,B7
6,0.0036,B8
7,0.0055,B9
8,0.0039,B10

# Molecular target: T1, human GPRC5D
# Assay: cell-based or functional assay
# Remark: another data set of the same source
row,"CAR-J2 EC50 (PGLALA-CAR-J activation, L363 target cells) [µg/mL]",Binder
1,0.00265,B11
2,0.19,B12
3,0.0619,B13
4,0.583,B14
5,0.0746,B15
6,0.00889,B16
7,0.0842,B17
8,0.397,B18
9,0.0782,B19
10,0.19,B20
11,0.0826,B21
12,0.183,B22
13,0.03,B23
14,0.0157,B24
15,0.00547,B25
16,0.00295,B26
